For 1 molecule, IC50, neutralisation of VSV spike pseudotypes results are on record in US20250313611A1.

“And” between values parts separate entries of the source, which are not always exact repeats. Equal values may be shown once.

The assay concerns the target spike proteins of the tested omicron. The assay can be described thus: cell-based or functional assay.

B1: VHH R3_DC23 (VHH)
VHH: QVQLQESGGGLVQAGDSLTLSCAVSGRIFSTYTMGWFRQAPGKEREFVAAVRWGAGTIYYADSMKGRFTISRDSAKNTVDLQMNSTKPEDTAVYYCGAAYVSKANYGSLWYQDSRRYDYWGQGTQVTVSS
On to B1, for which the IC50, neutralisation of VSV spike pseudotypes is 2.9 ng/mL and 5.7 ng/mL.
